In data set [1] the target is T1, MurAA (Enterococcus faecium, UniProt A0A133CTP6).
T1 construct: gene murA; full-length
Put plainly: X-ray crystal structure ([…] Å), co-purified ligand, weak/partial density. The format is binding.

In another data set the target is T2, MurAA^A149E (Enterococcus faecium, UniProt A0A133CTP6, A149E).
T2 construct: gene murA; full-length
Put plainly: microscale thermophoresis in the presence of UDP-GlcNAc. The format is binding. Background: Microscale thermophoresis detects binding through changes in fluorescence in a small temperature gradient.

Data set [2] addresses T1, MurAA. Kind of data set: ([…] Å); MST in the presence of UDP-GlcNAc. The format is binding.
The subject of data set [3] is C=C(OP(=O)(O)O)C(=O)O. Kind of data set: steady-state kinetics (Km), EnzChek phosphate assay. The format is biochemical, Enterococcus faecium.
The target in data set [4] is Enterococcus faecium MurG (Enterococcus faecium) (UniProt Q3Y2H8). Kind of data set: MST; 50 nM His-MurG labelled with RED-tris-NTA, serial dilution of MurAA^WT (402 uM to 12.3 nM) or MurAA^A149E (69.9 uM to 2.13 nM); 20 mM Hepes pH 7.5, 150 mM NaCl, 0.05% Tween; Monolith NT.115; triplicate.
The subject of data set [5] is C=C(OP(=O)(O)O)C(=O)O. Put plainly: purified protein. The following applies: covalently bound within the active site at Cys119.

We go through six compounds from paper PMC9975281, “Enolpyruvate transferase MurAA^A149E, identified during adaptation of Enterococcus faecium to daptomycin, increases stability of MurAA–MurG interaction” (The Journal of Biological Chemistry, 2023).

Turning to `CC(=O)N[C@H]1[C@@H](OP(=O)(O)OP(=O)(O)OC[C@H]2O[C@@H](n3ccc(=O)[nH]c3=O)[C@H](O)[C@@H]2O)O[C@H](CO)[C@@H](O)[C@@H]1O[C@H](C)C(=O)O` [UDP-MurNAc], the “X-ray crystal structure (2.65 Å), co-purified ligand, weak/partial density” value at MurAA [1] is “Cys119-PEP adduct and UDP–MurNAc at the interface of two domains in E. faecium MurAA”.
Turning to `C[C@@H]1O[C@@H]1P(=O)(O)O` [FOS, fosfomycin], the Kd – broadly, the concentration at which binding is half-saturated – on MurAA^A149E is 470 ± 60 nM; on MurAA [2], 1870 ± 670 nM.
Turning to “MurAA^A149E (Enterococcus faecium; A149E)”, in the data set on C=C(OP(=O)(O)O)C(=O)O [3], the Km – broadly, the substrate concentration at which the rate is half of its maximum – stood at 7.26 ± 1.05 µM and the kcat (in general, the maximal rate divided by the concentration of active sites) was found to be 1.04 ± 0.04 s⁻¹.
Take “Enterococcus faecium MurAA, wildtype (UDP-N-acetylglucosamine enolpyruvate transferase) (enzyme)”: in data set [4], the Kd was 27700 nM.
MurAA (Enterococcus faecium): in the data set with C=C(OP(=O)(O)O)C(=O)O [5], the Km was 6.35 ± 0.88 µM and the kcat worked out at 1.81 ± 0.06 s⁻¹.
Turning to “Enterococcus faecium MurAA^A149E (enzyme)”, the Kd in data set [4] worked out at 1720 nM.
